Results taken from patent US6617306B2, “Carrier for in vivo delivery of a therapeutic agent” (priority 1998, dated 2003).
Side chains are listed from the residue outwards. * marks the point of attachment. Biotin = O=C1N[C@H]2[C@H](CS[C@H]2CCCCC(=O)*)N1; cysteamine‑PEG/Lys copolymer = not defined here; PEG/Lys copolymer = not defined here

How the values were obtained:
[1] = Release of peptide from PEG/Lys carrier by reductive cleavage of the disulfide linkage with glutathione; type: physicochemical; settings: for half-time of release of peptide from carrier: 3 mM glutathione in PBS (pH 7.4), room temperature, cysteamine thiol linker
Method: The disulfide linked conjugate, PEG-cysteamine-N-acetyl-Phe-Arg-Arg-Arg-Cys-NH2 (SEQ ID NO:9) was added to a solution of reduced glutathione (3 mM in PBS) to a final peptide concentration of 0.3 mM, and then incubated under N2 at room temperature. A sample was taken at each time point, acidified by adding an aliquot of 5% TFA and applied to a G-75 column in 0.1% TFA (7 ml bed volume) to separate PEG-conjugated peptide from free peptide. Appropriate fractions in the high-molecular-weight region were pooled, and the extent of peptide derivatization at each time point was determined by amino acid analysis. For measuring the release of radiolabeled peptide, each time point aliquot was acidified to pH 3.5 with sulfuric acid. The PEG-conjugated peptide and the free peptide were then separated using ultrafiltration on “CENTRICON-10”. To ensure complete separation, the retentate was diluted and ultrafiltered two more times. Radioactivity in the retentate and combined filtrate was quantitated by scintillation counting.
Release of the peptide, N-acetyl-Phe-Arg-Arg-Arg-Cys-NH2 (SEQ ID NO:9), by reductive cleavage of its disulfide linkage to a carrier of the present invention comprising a PEG/Lys copolymer was evaluated using 3 mM glutathione in PBS (pH 7.4) at room temperature. At each time point, an aliquot was withdrawn and acidified to halt the disulfide interchange reaction. Released peptide was removed from PEG/Lys-peptide conjugate by gel filtration chromatography, and the ratio of PEG (i.e. Lys residues) to peptide (i.e. Phe or Arg residues) was determined by amino acid analysis.
Release kinetics were also studied using the disulfide-linked radiolabeled peptides, N-acetyl-Arg-Lys-Lys-Arg-Arg-Gln-Arg-Arg-Arg-Cys-NH2 (SEQ ID NO:10) and N-acetyl-Arg-Lys-Lys-Arg-Arg-Gln-Arg-Arg-Arg-Lys-(biotin)-Cys-NH2 (SEQ ID NO:3). Released peptide was removed from PEG/Lys-peptide conjugate by ultrafiltration.
Analysis of the release rate of the radiolabeled peptide, N-acetyl-Arg-Lys-Lys-Arg-Arg-Gln-Arg-Arg-Arg-Lys-(biotin)-Cys-NH2 (SEQ ID NO:3) gave a half-time of about 40 min in the presence of 30 mM glutathione (FIG. 6). Since the disulfide cleavage rate is proportional to glutathione concentration^8, the sterically hindered linker has a release rate about 100 times slower than does a carrier of the present invention in which the thiol compound is cysteamine. Thus, the release rate can be readily controlled by selection of a thiol compound having functional groups, wherein the thiol compound is conjugated to the polymer, and conjugated via a disulfide bond to a therapeutic agent.

[2] = test system: Tat binding to TAR RNA; experiment: TAR-CAT / Tat plasmid transfected Jurkat cells, CAT protein by immunoassay; type: cell-based, HIV-1; settings: inhibitor added at 18 h, CAT measured at 42 h
Method: FIG. 7 is a graph of the comparison of the inhibition of protein expression in a Jurkat cell line transfected with a TAR-CAT (TAR-Chloramphenicol Acetyl Transferase) plasmid and a Tat-protein plasmid. In this experiment, one group of cells was administered a Tat inhibitory biotinylated polypeptide derivative having a sequence of N-acetyl-Arg-Lys-Lys-Arg-Arg-Gln-Arg-Arg-Arg-Lys-(biotin)-Cys-NH2 (SEQ ID NO:3), and another group of cells was administered the same Tat inhibitory biotinylated peptide derivative conjugated to a carrier of the present invention via a disulfide bond between the sulfur atom of the thiol group of the thiol compound, and the thiol group of the Cys residue located between biotin and the amino group of the Tat inhibitory biotinylated polypeptide derivative of SEQ ID NO:3. […] Cysteamine was the thiol compound conjugated to the polymer. Conjugation of cysteamine to the polymer involved the carboxylic acid group of the lysine incorporated into the copolymer, which was available for reaction. If the polypeptide was successful in inhibiting Tat binding to TAR, CAT […]. […]
Initially, a Jurkat cell line was stably transfected with a TAR-CAT plasmid. […] At t=42 hours, the cells were harvested and CAT protein was measured by immunoassay. […]

Substance	half-time of release of radiolabeled peptide from carrier ([1]; 30 mM glutathione in PBS, sterically hindered linker 1-amino-2-methyl-2-propanethiol)	release rate, times slower than carrier with cysteamine ([1]; cleavage rate taken as proportional to glutathione concentration)	increase in potency relative to biotinylated Tat-peptide inhibitor administered alone [2]	half-time of release of peptide from carrier [1]
PEG-1-amino-2-methyl-2-propanethiol-SEQ ID NO:3: radiolabeled SEQ ID NO:3 peptide disulfide-linked to PEG/Lys derivative of sterically hindered 1-amino-2-methyl-2-propanethiol (Ac-RKKRRQRRRK(Biotin)C-NH2; not fully specified (residue 11); printed as N-acetyl-Arg-Lys-Lys-Arg-Arg-Gln-Arg-Arg-Arg-Lys-(biotin)-Cys-NH2; also: acetyl group tritium-labelled, Cys11 disulfide-linked to PEG/Lys carrier bearing 1-amino-2-methyl-2-propanethiol)	about 40 min	about 100 times	–	–
PEG-cysteamine-SEQ ID NO:3: SEQ ID NO:3 peptide disulfide-linked via its Cys to the cysteamine-PEG carrier (PEG/lysine copolymer, about 27,000 D) (Ac-RKKRRQRRRKC([cysteamine (disulfide)-PEG/Lys copolymer])-NH2; reading uncertain; also: Lys(biotin), position not given here)	–	–	about 5 fold	about 3 minutes
PEG-cysteamine-N-acetyl-Phe-Arg-Arg-Arg-Cys-NH2 (Ac-FRRRC(cysteamine‑PEG/Lys copolymer)-NH2; reading uncertain; also: Cys disulfide-linked to PEG/Lys cysteamine carrier, printed as PEG-cysteamine-N-acetyl-Phe-Arg-Arg-Arg-Cys-NH2) [PEG-cysteamine-SEQ ID NO:9]	–	–	–	about 3 minutes
PEG-cysteamine-SEQ ID NO:10: radiolabeled SEQ ID NO:10 peptide disulfide-linked to PEG/Lys copolymer through cysteamine (Ac-RKKRRQRRRC-NH2; not fully specified (residue 10); printed as N-acetyl-Arg-Lys-Lys-Arg-Arg-Gln-Arg-Arg-Arg-Cys-NH2; also: radiolabel)	–	–	–	about 3 minutes
